We go through 19 sequences from the DeepSol protein solubility set.

The data set is described as follows: soluble on expression in E. coli; label from the status in PepcDB or PDB records.
In the case of “MSLDNIIIIQTKNPNYYAIKYAYKNQYEQFYEEELNIRKKLNYPPFNKIIRIIFRSKNEESAKQKCWEFFEKSKEFLQEEIEHLGPSEAIMKKISKNYRYNIIYLSKSYSLLEKLVNKTKEKVKMTSTVYIEIDYYPISEGHHHHHH”, the “soluble on expression in E. coli” value is on record as “not soluble”.

On to “MGSDKIHHHHHHMKMNHLDIAKEALVAQAQAVAKLADRLDGQFQSAVDLILACEGRTVVCGMGKSGLIGKKMVATFASTGTPSFFLHPAEAFHGDLGMLKPVDVLVLISYSGETEELIKLIPSLKSFGNKFIAMTGSGNSTLAKHADIWLDISVDREVCPNNLAPTTSTLATMAMGDALAVALITANQFKPMDFARYHPGGSLGRKLLTRVADVMHSPAPIVSPASSFQDCLLMMTQSRLGLAMVMDGNELVGIVTDGDLRRALLKNNQVIHASVTEFMTLNPHTIPADCRVSVAEAYMLENKIRALAVVDDCGAIVGVVEIFDGNPVA”, for which the “soluble on expression in E. coli” value was “not soluble”.

Consider “MVRESIPKEGENIKIQSYKHDGKIHRVWSETTILKGTDHVVIGGNDHTLVTESDGRTWITREPAIVYFHSEYWFNVICMFREDGIYYYCNLSSPFVCDEEALKYIDYDLDIKVYPNGKYHLLDEDEYEQHMNQMNYPHDIDIILRRNVDILQQWIEQKKGPFAPDFIKVWKERYKKIRQY”, for which the “soluble on expression in E. coli” value was “soluble”.

On to “MGSDKIHHHHHHMPGTAARPAPIRVTYAEVMQRIIGTEVEYGISSPSDPTANPILTSTQAVLAYAAAAGIQRAKRTRWDYEVESPLRDARGFDLSRASGPPPVVDADEVGAANMILTNGARLYVDHAHPEYSAPECTDPLDAVIWDKAGERVMEAAARHVASVPGAAKLQLYKNNVDGKGASYGSHENYLMSRQTPFSAVIAGLTPFLVSRQVVTGSGRVGIGPSGDEPGFQLSQRADYIEVEVGLETTLKRGIINTRDEPHADADKYRRLHVIIGDANLAETSTYLKLGATSLVLDLIEEGMDLSDLALARPVHAVHVISRDPSLRATVAMADGRELTALALQRIYLDRVAKLVDSRDPDPRAAHVVETWAEVLDLLERDPMECAEILDWPAKLRLLEGFRHRENLGWSAPRLHLVDLQYSDVRLDKGLYNRLVARGSMKRLVTEQQVLDAVDSPPTDTRAYFRGECLRRFGADIAAASWDSVIFDLGGDSLVRIPTLEPLRGSKAHVGALLDSVDSAVQLVEQLTAT”, for which the “soluble on expression in E. coli” value was “not soluble”.

Take “MFEGFKEVTDKDFYKAVMMNPKPSVVVFTDPNNPANEQIKPILEKYQKLYGDKIDFFYMDVTKNTSFEDFGIFNFPAILYFRDTMELDRHDFIPTEEMVEQAIKRLLRMV”: the “soluble on expression in E. coli” value is listed as “not soluble”.

For the sequence “MGSDKIHHHHHHVIIESRIEKGKPVVGMETTVFVHGLPRKEAIELFRRAKEISREKGFQLAVIGILKGKIVAGMSEEELEAMMREGADKVGTREIPIVVAEGKNAATTVSATIFLSRRIGIEVVVTGGTGGVHPGRVDVSQDLTEMSSSRAVLVSSGIKSILDVEATFEMLETLEIPLVGFRTNEFPLFFSRKSGRRVPRIENVEEVLKIYESMKEMELEKTLMVLNPVPEEYEIPHDEIERLLEKIELEVEGKEVTPFLLKKLVEMTNGRTLKANLALLEENVKLAGEIAVKLKRS”, the “soluble on expression in E. coli” value was “soluble”.

Turning to “MSLEGVENKVIVLAGMIGAGKSSYTELIANELGTKAFYESIKDNRILEMFYDDPKRWAFALQIYFLNTRFRSIKAALTDQNNVLDRSIYEDALFTQINFEEGNISEPEMDTYLDLLDNMMEELAYMPKKAPDLLIYLRGSLDTVLSRIALRGRPYEQIDDNPGLLEYYKHLHSRYDSWFASYDKSETLVINIDEIDINKPNDADYVMQLIHEKLKREGHHHHHH”, the “soluble on expression in E. coli” value is reported as “soluble”.

“MGLLLYRELVHKLKTKYKKIAGKGENQKDKTLPWHLETDQLTNRHPNHKVRIPYIDEVFDMLAKMTAKNQLTLPKSVTTAVGAGEYFEIEVRNGQIVLTPVRIQRADAVRAKLAELDLGERDIMDAVTWARQPVKGSATE”: the “soluble on expression in E. coli” value is given as “not soluble”.

With “MDKFKGAVMVGALRLFALLPWRAVQWVGTAIGWLMWKLPNRSREVARINLSKCFPELSEPELEKLVGRSLMDIGKTLTESACAWIWPAQKSINLVREVEGLEVLKDALASGKGVVGITSHLGNWEVLNHFYCSQCKPIIFYRPPKLKAVDDLLRKQRVQLGNRVAASTKEGILSVIKEVRKGGSVGIPADPEPAESAGIFVPFCGTQALTSKFVPNMLAGGKAVGVFLHAMRLPDGSGYKVVLEAAPEAMYSTDTQTSAAAMSKVVEKYVRAYPSQYMWTMKRFKK”, the “soluble on expression in E. coli” value was “not soluble”.

As for “MCMAQRLNVNPTRMELSKLKKRLATATRGHKLLKDKQDELMRQFINLIKYNNQLRDEVEKELGSSLKDFVMARAVMSSEFLEEAIAYPKEEIEVEVGNKNIMSVNVPIMNFKRKLEGDEGSIYPYGFMNTSAELDDAISKLYGILPKLLELAEVEKSGQLMADEIEKTRRRVNALEYMTIPQLKETIRYIRMKLDENERSALTRLMKVKSMIEQRGLEHHHHHH”, the “soluble on expression in E. coli” value is listed as “not soluble”.

For the sequence “GPGSMADSIKKHFQQENEVKDTGCMTSALSYLPIYINTDKLPENMLVGAPLFYPPQMAVLPLSWTDAVGFERSCFITCEGPFPHMTANGKDPHDMSFFFLQYMQRVPFMQSTAERGLPIKQLQDVGLLCCTDAFSHIVTDPAERVVVIFGRNGPYFTSLVITPCTMPEKNVVGNIQLANQISLQDLQKLLDACCPTPLVDEIRLAGTSAGTLQGKLHIACRYGNRVVQFTAASALTVRSARDNEDFIFSLEGDVLAQKRIVFDAATIDALISGKTLDELFSCPGPQCMRVSSLVQLIHMEDLTEISHNLGNGASNGDVTREINLKVSGSRLLLSAGEVSVVFHHAHLGVHFPINSHHGVICEPVLTTDLCLMYYPLGSTAALPNAMMRRVRQLPPTWERSLHTDDALRHNALFHFTDWMRGSVPCITCDLSGFRCAQLYEEKDGMSCRTYVVPLAEEIMVLRWETSTCDWEQHLPHLQKFIDTLHLEVPTA”, the “soluble on expression in E. coli” value is listed as “not soluble”.

On to “SLNPRDVVIVDFGRTPMGRSKGGMHRNTRAEDMSAHLISKVLERNSKVDPGEVEDVIWGCVNQTLEQGWNIARMASLMTQIPHTSAAQTVSRLCGSSMSALHTAAQAIMTGNGDVFVVGGVEHMGHVSMMHGVDPNPHMSLYAAKASGMMGLTAEMLGKMHGISREQQDAFAVRSHQLAHKATVEGKFKDEIIPMQGYDENGFLKIFDYDETIRPDTTLESLAALKPAFNPKGGTVTAGTSSQITDGASCMIVMSAQRAKDLGLEPLAVIRSMAVAGVDPAIMGYGPVPATQKALKRAGLNMADIDFIELNEAFAAQALPVLKDLKVLDKMNEKVNLHGGAIALGHPFGCSGARISGTLLNVMKQNGGTFGLSTMCIGLGQGIATVFERV”, for which the “soluble on expression in E. coli” value is recorded as “soluble”.

Consider “MQGKLNCEIEMEVQIFTHKNCVECNMLLEYLENKGLLGKVKIIDTELYPFLAFEKGVISTPSIFIDGKLVYAGIVDFEEFERILSGQKVTKQIDKASLVEKLMLGIVDSFAATAWLYINRDFDSFLAQKDFVMAVTGLSLLDEREGDEYYNYLRNVMVKEGDRYLEEWKPRMLRNISSNFIREIFWLYERKISKETLTQKYPVEVFAHWLMIRSGAVGRVGLRIYPLSDSTVMKRVLEAYNFMLENYDEIFNKVQKEQMELKTKNKEQVRYLQL”, for which the “soluble on expression in E. coli” value is recorded as “soluble”.

For “MLPSTSKSVEVNENSEEPIELEENVIVVTGDEIQAEIAVVDGEEVIFADDDEYIEYDPLSIANDRNAVYDIYQPHESENGTFMCKICMRTGKNTEYEDRSTFVAHRYKCHGSFNNNVMCPLGDCREVFASLYTLRRHLSQQHELPIEIHLQSFVNIGEFEKFRHLVELASGCRFMMHTKQPKYRRQVMHCSKSEHKLVLQTQKHRLPRERMLKEGSACPSVISYRVESSSGEVHTFMQLYHIGHAPDTESQNSNADNARPMDIVFPIKPACWANHPMQYVQIDVHEMPTSIYGNKIYDNILIVTCLKTRFLWAKPLFECTRTAIGRILNSIFNEYGVPEGFSTSFSPTYIRDTIKSLESVYAVEIREVWNEPLPYNCLERWVLELAQNELGTRNRWVEQLQFLVMEYNQKPIPDRMETPFERMFNRKAPNLYHNGDNQEIIHDKYISYHSELRNEEEGVENRLNTSFEPGRKVFLRKGITKPRRGNNTQYYFGYIGEVDPSNPYYPFKVHYTSSDSPWPSERNIYAWVSVFDLLPTIHEISEMSMTSKKVSIAGLLCSCMGIESSQKYDLTAMGDIARESSRCLLFRNCLCTNQMSRFCCKLVGREHCRFHSVYPENDESYAKMDAALSSFIAYNKDSSKEAEKDLQDSTPIEQILNEVGRRRLESEITVEDPEDLAPPILEPMEPTERHLDTEEEEEEPNQIPMASEHIDIEGVDEEEIMEHSVNAISEEILFEYADDKRDDGPSTPKRGRRRKSPSESAGKKKKLSNNDEFVESTVSRRSSARRTIRPKNLDDYVE”, the “soluble on expression in E. coli” value was “not soluble”.

With “MSLLRSLRVFLVARTGSYPAGSLLRQSPQPRHTFYAGPRLSASASSKELLMKLRRKTGYSFVNCKKALETCGGDLKQAEIWLHKEAQKEGWSKAAKLQGRKTKEGLIGLLQEGNTTVLVEVNCETDFVSRNLKFQLLVQQVALGTMMHCQTLKDQPSAYSKGFLNSSELSGLPAGPDREGSLKDQLALAIGKLGENMILKRAAWVKVPSGFYVGSYVHGAMQSPSLHKLVLGKYGALVICETSEQKTNLEDVGRRLGQHVVGMAPLSVGSLDDEPGGEAETKMLSQPYLLDPSITLGQYVQPQGVSVVDFVRFECGEGEEAAETE”, the “soluble on expression in E. coli” value is given as “soluble”.

On to “MWRLRMSLGISEAFDLRPDYIISVIKDTRAKLVGFQFPEGLKRKGPELAKKVEKATGAEIIISGDPCFGACDLDRTLLDHVDILFHFGHAELEDIRLSNKVYFIETRSSVDVLHVIEKAVPELKGQKIGLITTVQHVHKLPDVCGVLERMGKTCVIGRGDSRIAYAGQVLGCNFSAARDEDCDEYLYIGSGDFHPLGVALSTKKRVLAADPFSGEVREVDPSRILRQRSAVIAKSLDAQVFGIIVSSKNGQKRMELASSLKELAKKHGKESHLILIDLVTPDQLLQFKVDAFVNTACPRLAIDEVGRFPAPMLTPQEFEIVLGEREWEKLVLDEITEEPVLEHHHHHH”, for which the “soluble on expression in E. coli” value is given as “not soluble”.

Regarding “MKIQDYTKEMVDEKSFIDMAYTLLNDKQTTMNLYDIIDEFKSLGGYEYEDIENRIVQFYTDLNTDGRFLNVGENLWGLRDWYSVDDIEEKIAPTIQKFDILDDEDEEDQNLKLLGDDDADEDDDIPAQTDDQETLDESDNDEDDVEMNEADIVIDEDEDEDIAEGEEEAFEDAEDFND”, the “soluble on expression in E. coli” value is on record as “not soluble”.

As to “MAHHHHHHMLRGTPVRRASLRYRRPYWMMFLKGVDNWKIYTVIQQPDHQRTEMLYQAWLGGLDRPYTRPKCMANQPLWLSKKRHMLRKERLDGPETPLEKYVLEWHKKFHSFQGTERPTPDDLHTALDLVERPLDLSYALQLLGQCRNLNNIRFAKETFLVFLEACLRVGRRDCAEYALEHAEPLGFWFIDEDHRRYLQGEQTWYKLSPLDNLYYPVEENAKLNEGRKPITRLSPATESPGSGTAISDGEPSTDVEGETTVDDEIAQLEAELAALEREGGGK”, the “soluble on expression in E. coli” value is “not soluble”.

“MGSDKIHHHHHHMTSIVFNGSYITKKNTGVGVVSKDLLYSLSANKITTLIPKDLDIKGDIYIPNNLSPGTGLKSHFRRLYWLQNSVPKLMNNLNAEYFLSPLLEAPLFSNIKSIVLAHDLIPIRYPSVSFLTLYYLIYIPLILKQSKLILCNSVSTANDLHRFYKVPMHKLFPIKLGFNNKKYYPIKKIRKKFFLIIGRHNPHKNLRRVIKAFAYSKINDYKLIFVGPFDKRHTPSLLKLIDKHNIRHLCVWKGWIDDDEKLSLLNECHALIIASLWEGFGLPALEAMACGTPVIASDRGALREVMGNYGYFINPFNIQSIACAMNAVINDKKCFENALQEGPSRAESFNWLDTARTIEKIIQEID”: the “soluble on expression in E. coli” value is “not soluble”.
